Measured values from the Human Domainome abundance scans (Beltran et al. 2025).
± gives the uncertainty stated by the source.

B1: Retinoic acid receptor beta, residues 85 to 161; numbered along this chain, P10826 (parent)
chain: YKPCFVCQDKSSGYHYGVSACEGCKGFFRRSIQKNMIYTCHRDKNCVINKVTRNRCQYCRLQKCFEVGMSKESVRND

Variants of: B1
Assay: abundance fitness (aPCA) (normalised: wild type 0, dead -1); higher = more abundant; growth selection in yeast, the domain comes from the species named
Conditions: Homo sapiens

Row | Variant | abundance fitness
1 | R53L | 0.148 ± 0.037
2 | R53D | -0.018 ± 0.061
3 | R53N | 0.123 ± 0.082
4 | R53S | 0.126 ± 0.042
5 | R53H | 0.016 ± 0.11
6 | R53K | 0.071 ± 0.063
7 | R53M | 0.195 ± 0.045
8 | R53C | 0.084 ± 0.071
9 | R53Y | 0.116 ± 0.068
10 | R53G | 0.003 ± 0.035
11 | R53V | 0.211 ± 0.035
12 | R53W | -0.026 ± 0.053
13 | R53F | 0.057 ± 0.079
14 | R53P | 0.103 ± 0.054
15 | R53A | 0.183 ± 0.039
16 | R53I | 0.127 ± 0.074
17 | R53E | 0.102 ± 0.046
18 | R53Q | 0.19 ± 0.068
19 | H41A | -0.006 ± 0.039
20 | H41Q | 0.029 ± 0.061
21 | H41E | 0.131 ± 0.037
22 | H41L | -0.077 ± 0.038
23 | H41P | -0.044 ± 0.055
24 | H41N | -0.121 ± 0.087

Row | Variant | abundance fitness
25 | H41M | 0.081 ± 0.047
26 | H41S | -0.089 ± 0.042
27 | H41T | 0.129 ± 0.052
28 | H41I | -0.064 ± 0.11
29 | H41R | -0.101 ± 0.036
30 | H41C | -0.157 ± 0.066
31 | H41K | -0.103 ± 0.073
32 | H41D | 0.051 ± 0.053
33 | H41W | 0.016 ± 0.038
34 | H41G | -0.024 ± 0.03
35 | H41Y | -0.178 ± 0.099
36 | N35G | 0.077 ± 0.032
37 | N35S | 0.035 ± 0.051
38 | N35A | 0.037 ± 0.045
39 | N35L | -0.235 ± 0.06
40 | N35T | 0.039 ± 0.063
41 | N35F | -0.215 ± 0.11
42 | N35Q | 0.087 ± 0.065
43 | N35V | -0.184 ± 0.057
44 | N35I | -0.684 ± 0.32
45 | N35M | -0.149 ± 0.081
46 | N35D | 0.128 ± 0.062
47 | N35W | -0.45 ± 0.072
48 | N35E | 0.159 ± 0.046

Row | Variant | abundance fitness
49 | N35K | 0.186 ± 0.061
50 | N35R | -0.018 ± 0.037
51 | N35P | -0.312 ± 0.092
52 | N35C | 0.024 ± 0.08
53 | N35H | -0.373 ± 0.14
54 | N45A | 0.068 ± 0.057
55 | N45P | -0.025 ± 0.051
56 | N45I | 0.054 ± 0.066
57 | N45L | 0.02 ± 0.045
58 | N45V | 0.039 ± 0.065
59 | N45F | -0.251 ± 0.088
60 | N45D | -0.151 ± 0.13
61 | N45K | 0.053 ± 0.069
62 | N45Y | -0.477 ± 0.14
63 | N45E | 0.049 ± 0.11
64 | N45H | -0.021 ± 0.059
65 | N45R | 0.059 ± 0.054
66 | N45G | -0.044 ± 0.082
67 | N45W | -0.302 ± 0.12
68 | N45S | -0.057 ± 0.053
69 | N45C | 0.02 ± 0.079
70 | N45M | -0.035 ± 0.087
71 | N45Q | 0.078 ± 0.068
72 | T39W | -0.097 ± 0.036

Row | Variant | abundance fitness
73 | T39H | 0.029 ± 0.067
74 | T39R | -0.01 ± 0.028
75 | T39C | -0.047 ± 0.058
76 | T39E | -0.025 ± 0.038
77 | T39A | -0.017 ± 0.033
78 | T39N | 0.003 ± 0.056
79 | T39Y | -0.009 ± 0.067
80 | T39F | 0.105 ± 0.058
81 | T39K | 0.056 ± 0.047
82 | T39L | 0.059 ± 0.033
83 | T39G | -0.156 ± 0.03
84 | T39M | 0.061 ± 0.039
85 | T39Q | 0.076 ± 0.041
86 | T39S | -0.01 ± 0.039
87 | T39P | -0.327 ± 0.08
88 | T39D | 0.078 ± 0.058
89 | K50T | 0.125 ± 0.058
90 | K50A | 0.145 ± 0.052
91 | K50W | 0.25 ± 0.078
92 | K50G | 0.153 ± 0.064
93 | K50Y | 0.126 ± 0.08
94 | K50Q | 0.158 ± 0.043
95 | K50R | 0.153 ± 0.051
96 | K50M | 0.124 ± 0.069

Row | Variant | abundance fitness
97 | K50S | 0.231 ± 0.044
98 | K50D | 0.225 ± 0.12
99 | K50V | 0.208 ± 0.06
100 | K50H | 0.094 ± 0.059
101 | K50C | -0.218 ± 0.11
102 | K50P | 0.09 ± 0.044
103 | K50I | 0.244 ± 0.074
104 | K50N | 0.021 ± 0.085
105 | N54I | 0.233 ± 0.067
106 | N54D | 0.345 ± 0.059
107 | N54M | 0.216 ± 0.052
108 | N54C | -0.267 ± 0.082
109 | N54Q | 0.183 ± 0.06
110 | N54E | 0.217 ± 0.047
111 | N54F | 0.089 ± 0.08
112 | N54P | -0.003 ± 0.053
113 | N54G | -0.007 ± 0.038
114 | N54K | 0.183 ± 0.052
115 | N54H | 0.067 ± 0.082
116 | N54A | 0.074 ± 0.045
117 | K44R | 0 ± 0.035
118 | K44D | -0.059 ± 0.075
119 | K44H | -0.322 ± 0.14
120 | K44W | -0.208 ± 0.051

Row | Variant | abundance fitness
121 | K44F | -0.283 ± 0.087
122 | K44T | -0.043 ± 0.069
123 | K44L | -0.059 ± 0.043
124 | K44G | 0.035 ± 0.033
125 | K44C | -0.113 ± 0.067
126 | K44S | 0.056 ± 0.044
127 | K44A | -0.004 ± 0.046
128 | K44Q | 0.166 ± 0.06
129 | K44E | -0.015 ± 0.051
130 | K44I | -0.009 ± 0.13
131 | K44V | -0.356 ± 0.057
132 | K44Y | -0.321 ± 0.098
133 | K44P | -0.599 ± 0.21
134 | K44M | 0.032 ± 0.055
135 | R42S | 0.014 ± 0.049
136 | R42A | 0.203 ± 0.038
137 | R42I | -0.114 ± 0.097
138 | R42Q | 0.121 ± 0.062
139 | R42C | 0.145 ± 0.06
140 | R42D | -0.047 ± 0.074
141 | R42N | 0.115 ± 0.14
142 | R42T | -0.016 ± 0.069
143 | R42E | 0.07 ± 0.055
144 | R42Y | 0.033 ± 0.09

Row | Variant | abundance fitness
145 | R42H | -0.412 ± 0.14
146 | R42P | -1.01 ± 0.33
147 | R42M | 0.228 ± 0.049
148 | R42W | 0.15 ± 0.043
149 | R42V | 0.177 ± 0.034
150 | R42K | 0.067 ± 0.064
151 | C40A | -0.901 ± 0.096
152 | C40I | -0.667 ± 0.14
153 | C40L | -0.555 ± 0.073
154 | C40K | -0.848 ± 0.15
155 | C40P | -0.703 ± 0.12
156 | C40R | -0.883 ± 0.073
157 | C40M | -0.568 ± 0.087
158 | C40F | -0.775 ± 0.19
159 | C40S | -0.885 ± 0.11
160 | C40V | -0.867 ± 0.082
161 | C40Y | -0.642 ± 0.17
162 | C40T | -0.539 ± 0.11
163 | C40D | -0.825 ± 0.19
164 | C40G | -0.817 ± 0.057
165 | C40W | -0.594 ± 0.087
166 | C40N | -0.999 ± 0.34
167 | C40E | -0.831 ± 0.096
